{"source": "patent US20220119549A1", "about": "(TAVOTEK BIOTHERAPEUTICS HONG KONG, published 2022)"}
{"target": "T1, recombinant human TNFα (human, UniProt P01375 77-233)", "T1 construct": "Bought protein", "T1 sequence (P01375 77-233 limits assumed)": "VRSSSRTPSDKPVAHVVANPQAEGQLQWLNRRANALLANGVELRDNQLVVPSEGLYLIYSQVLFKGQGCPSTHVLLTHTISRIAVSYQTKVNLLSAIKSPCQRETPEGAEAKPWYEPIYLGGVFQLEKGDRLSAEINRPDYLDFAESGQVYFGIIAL", "assay": "ELISA on human TNFα", "units": {"fold more reduced binding affinity than TAVO190191": "fold"}}
{"binder": "TAVO271272 (antibody, human IgG1, kappa, Undigested; ADA-H2X / ADA-L1; also called anti-TNFα shielded antibody with variant IGF2-based masking domain; EAC271/EAC272) heavy: GILEECCFRSCDLALLETYCAGGGGSPLGLAGGGGGSEVQLVESGGGLVQPGGSLRLSCAASGFDFADYAMHWVRQAPGKGLEWVSAITWNGGHTDYADSVKGRFTISRDNSKNTLYLQMNSLRAEDTAVYYCAKVSYLSTASSLDYWGQGTLVTVSSASTKGPSVFPLAPSSKSTSGGTAALGCLVKDYFPEPVTVSWNSGALTSGVHTFPAVLQSSGLYSLSSVVTVPSSSLGTQTYICNVNHKPSNTKVDKKVEPKSCDKTHTCPPCPAPPAAGPSVFLFPPKPKDTLMISRTPEVTCVVVDVSHEDPEVKFNWYVDGVEVHNAKTKPREEQYNSTYRVVSVLTVLHQDWLNGKEYKCKVSNKALPAPIEKTISKAKGQPREPQVYTLPPSRDELTKNQVSLTCLVKGFYPSDIAVEWESNGQPENNYKTTPPVLDSDGSFLLYSKLTVDKSRWQQGNVFSCSVLHEALHSHYTQKSLSLSPGK light: not shown", "fold more reduced binding affinity than TAVO190191": 8}
{"binder": "TAVO578272 (antibody, human IgG1, kappa, Variant IGF2 mask; ADA-H1 / ADA-L1; also called EAC578/EAC272) heavy: GILEECCFRSCDLALLETYCAGGGGSPLGLAGGGGGSEVQLVESGGVVVQPGGSLRLSCAASGFTFDDYAMHWVRQAPGKGLEWVSAITWNSGHIDYADSVKGRFTISRDNSKNSLYLQMNSLRTEDTALYYCAKVSYLSTASSLDYWGQGTLVTVSSASTKGPSVFPLAPSSKSTSGGTAALGCLVKDYFPEPVTVSWNSGALTSGVHTFPAVLQSSGLYSLSSVVTVPSSSLGTQTYICNVNHKPSNTKVDKKVEPKSCDKTHTCPPCPAPPAAGPSVFLFPPKPKDTLMISRTPEVTCVVVDVSHEDPEVKFNWYVDGVEVHNAKTKPREEQYNSTYRVVSVLTVLHQDWLNGKEYKCKVSNKALPAPIEKTISKAKGQPREPQVYTLPPSRDELTKNQVSLTCLVKGFYPSDIAVEWESNGQPENNYKTTPPVLDSDGSFLLYSKLTVDKSRWQQGNVFSCSVLHEALHSHYTQKSLSLSPGK light: not shown", "binding result": "binds"}
{"binder": "TAVO579272 (antibody, human IgG1, kappa, Variant IGF2 mask; ADA-H1X / ADA-L1; also called EAC579/EAC272) heavy: GILEECCFRSCDLALLETYCAGGGGSPLGLAGGGGGSEVQLVESGGVVVQPGGSLRLSCAASGFDFADYAMHWVRQAPGKGLEWVSAITWNGGHTDYADSVKGRFTISRDNSKNSLYLQMNSLRTEDTALYYCAKVSYLSTASSLDYWGQGTLVTVSSASTKGPSVFPLAPSSKSTSGGTAALGCLVKDYFPEPVTVSWNSGALTSGVHTFPAVLQSSGLYSLSSVVTVPSSSLGTQTYICNVNHKPSNTKVDKKVEPKSCDKTHTCPPCPAPPAAGPSVFLFPPKPKDTLMISRTPEVTCVVVDVSHEDPEVKFNWYVDGVEVHNAKTKPREEQYNSTYRVVSVLTVLHQDWLNGKEYKCKVSNKALPAPIEKTISKAKGQPREPQVYTLPPSRDELTKNQVSLTCLVKGFYPSDIAVEWESNGQPENNYKTTPPVLDSDGSFLLYSKLTVDKSRWQQGNVFSCSVLHEALHSHYTQKSLSLSPGK light: not shown", "binding result": "binds"}
{"binder": "TAVO580272 (antibody, human IgG1, kappa, Variant IGF2 mask; ADA-H2 / ADA-L1; also called EAC580/EAC272) heavy: GILEECCFRSCDLALLETYCAGGGGSPLGLAGGGGGSEVQLVESGGGLVQPGGSLRLSCAASGFTFDDYAMHWVRQAPGKGLEWVSAITWNSGHIDYADSVKGRFTISRDNSKNTLYLQMNSLRAEDTAVYYCAKVSYLSTASSLDYWGQGTLVTVSSASTKGPSVFPLAPSSKSTSGGTAALGCLVKDYFPEPVTVSWNSGALTSGVHTFPAVLQSSGLYSLSSVVTVPSSSLGTQTYICNVNHKPSNTKVDKKVEPKSCDKTHTCPPCPAPPAAGPSVFLFPPKPKDTLMISRTPEVTCVVVDVSHEDPEVKFNWYVDGVEVHNAKTKPREEQYNSTYRVVSVLTVLHQDWLNGKEYKCKVSNKALPAPIEKTISKAKGQPREPQVYTLPPSRDELTKNQVSLTCLVKGFYPSDIAVEWESNGQPENNYKTTPPVLDSDGSFLLYSKLTVDKSRWQQGNVFSCSVLHEALHSHYTQKSLSLSPGK light: not shown", "binding result": "binds"}
{"binder": "TAVO584272 (antibody, human IgG1, kappa, Variant IGF2 mask; ADA-H4X / ADA-L1; also called EAC584/EAC272) heavy: GILEECCFRSCDLALLETYCAGGGGSPLGLAGGGGGSQVQLVESGGGVVQPGGSLRLSCAASGFDFADYAMHWVRQAPGKGLEWVSAITWNGGHTDYADSVKGRFTISRDNSKNTLYLQMNSLRAEDTAVYYCAKVSYLSTASSLDYWGQGTLVTVSSASTKGPSVFPLAPSSKSTSGGTAALGCLVKDYFPEPVTVSWNSGALTSGVHTFPAVLQSSGLYSLSSVVTVPSSSLGTQTYICNVNHKPSNTKVDKKVEPKSCDKTHTCPPCPAPPAAGPSVFLFPPKPKDTLMISRTPEVTCVVVDVSHEDPEVKFNWYVDGVEVHNAKTKPREEQYNSTYRVVSVLTVLHQDWLNGKEYKCKVSNKALPAPIEKTISKAKGQPREPQVYTLPPSRDELTKNQVSLTCLVKGFYPSDIAVEWESNGQPENNYKTTPPVLDSDGSFLLYSKLTVDKSRWQQGNVFSCSVLHEALHSHYTQKSLSLSPGK light: not shown", "binding result": "binds"}
{"binder": "TAVO190197 after digestion by both MMP2 and MMP3 (antibody, Both chains cut; not shown: remnant of the MMP2-cleavable linker left after cleavage; remnant of the MMP3-cleavable linker left after cleavage) heavy: EVQLVESGGGLVQPGGSLRLSCAASGFDFADYAMHWVRQAPGKGLEWVSAITWNGGHTDYADSVKGRFTISRDNSKNTLYLQMNSLRAEDTAVYYCAKVSYLSTASSLDYWGQGTLVTVSSASTKGPSVFPLAPSSKSTSGGTAALGCLVKDYFPEPVTVSWNSGALTSGVHTFPAVLQSSGLYSLSSVVTVPSSSLGTQTYICNVNHKPSNTKVDKKVEPKSCDKTHTCPPCPAPPAAGPSVFLFPPKPKDTLMISRTPEVTCVVVDVSHEDPEVKFNWYVDGVEVHNAKTKPREEQYNSTYRVVSVLTVLHQDWLNGKEYKCKVSNKALPAPIEKTISKAKGQPREPQVYTLPPSRDELTKNQVSLTCLVKGFYPSDIAVEWESNGQPENNYKTTPPVLDSDGSFLLYSKLTVDKSRWQQGNVFSCSVLHEALHSHYTQKSLSLSPGK light: not shown", "binding result": "binds"}
{"binder": "TAVO190197 (antibody, human IgG1, kappa, Undigested; also called anti-TNFα shielded antibody with two different types of protease-cleavable linkers; undigested TAVO190197) heavy: GIVEECCFRSCDLALLETYCAGGGGSPLGLAGGGGGSEVQLVESGGGLVQPGGSLRLSCAASGFDFADYAMHWVRQAPGKGLEWVSAITWNGGHTDYADSVKGRFTISRDNSKNTLYLQMNSLRAEDTAVYYCAKVSYLSTASSLDYWGQGTLVTVSSASTKGPSVFPLAPSSKSTSGGTAALGCLVKDYFPEPVTVSWNSGALTSGVHTFPAVLQSSGLYSLSSVVTVPSSSLGTQTYICNVNHKPSNTKVDKKVEPKSCDKTHTCPPCPAPPAAGPSVFLFPPKPKDTLMISRTPEVTCVVVDVSHEDPEVKFNWYVDGVEVHNAKTKPREEQYNSTYRVVSVLTVLHQDWLNGKEYKCKVSNKALPAPIEKTISKAKGQPREPQVYTLPPSRDELTKNQVSLTCLVKGFYPSDIAVEWESNGQPENNYKTTPPVLDSDGSFLLYSKLTVDKSRWQQGNVFSCSVLHEALHSHYTQKSLSLSPGK light: not shown", "binding result": "binds"}
{"binder": "TAVO271585 (antibody, human IgG1, kappa, Variant IGF2 mask; ADA-H2X / ADA-L2; also called EAC271/EAC585) heavy: GILEECCFRSCDLALLETYCAGGGGSPLGLAGGGGGSEVQLVESGGGLVQPGGSLRLSCAASGFDFADYAMHWVRQAPGKGLEWVSAITWNGGHTDYADSVKGRFTISRDNSKNTLYLQMNSLRAEDTAVYYCAKVSYLSTASSLDYWGQGTLVTVSSASTKGPSVFPLAPSSKSTSGGTAALGCLVKDYFPEPVTVSWNSGALTSGVHTFPAVLQSSGLYSLSSVVTVPSSSLGTQTYICNVNHKPSNTKVDKKVEPKSCDKTHTCPPCPAPPAAGPSVFLFPPKPKDTLMISRTPEVTCVVVDVSHEDPEVKFNWYVDGVEVHNAKTKPREEQYNSTYRVVSVLTVLHQDWLNGKEYKCKVSNKALPAPIEKTISKAKGQPREPQVYTLPPSRDELTKNQVSLTCLVKGFYPSDIAVEWESNGQPENNYKTTPPVLDSDGSFLLYSKLTVDKSRWQQGNVFSCSVLHEALHSHYTQKSLSLSPGK light: AYRPSETLCGGELVDTLQFVCGDRGFAFGGGGSPLGLAGGGGGSDIVMTQSPDSLAVSLGERATINCRASQGIRNYLAWYQQKPGQAPKLLIYAASTLQSGVPDRFSGSGSGTDFTLTISSLQAEDVAVYYCQRYNRAPYTFGQGTKVEIKRTVAAPSVFIFPPSDEQLKSGTASVVCLLNNFYPREAKVQWKVDNALQSGNSQESVTEQDSKDSTYSLSSTLTLSKADYEKHKVYACEVTHQGLSSPVTKSFNRGEC", "binding result": "binds"}
{"binder": "TAVO578585 (antibody, human IgG1, kappa, Variant IGF2 mask; ADA-H1 / ADA-L2; also called EAC578/EAC585) heavy: GILEECCFRSCDLALLETYCAGGGGSPLGLAGGGGGSEVQLVESGGVVVQPGGSLRLSCAASGFTFDDYAMHWVRQAPGKGLEWVSAITWNSGHIDYADSVKGRFTISRDNSKNSLYLQMNSLRTEDTALYYCAKVSYLSTASSLDYWGQGTLVTVSSASTKGPSVFPLAPSSKSTSGGTAALGCLVKDYFPEPVTVSWNSGALTSGVHTFPAVLQSSGLYSLSSVVTVPSSSLGTQTYICNVNHKPSNTKVDKKVEPKSCDKTHTCPPCPAPPAAGPSVFLFPPKPKDTLMISRTPEVTCVVVDVSHEDPEVKFNWYVDGVEVHNAKTKPREEQYNSTYRVVSVLTVLHQDWLNGKEYKCKVSNKALPAPIEKTISKAKGQPREPQVYTLPPSRDELTKNQVSLTCLVKGFYPSDIAVEWESNGQPENNYKTTPPVLDSDGSFLLYSKLTVDKSRWQQGNVFSCSVLHEALHSHYTQKSLSLSPGK light: AYRPSETLCGGELVDTLQFVCGDRGFAFGGGGSPLGLAGGGGGSDIVMTQSPDSLAVSLGERATINCRASQGIRNYLAWYQQKPGQAPKLLIYAASTLQSGVPDRFSGSGSGTDFTLTISSLQAEDVAVYYCQRYNRAPYTFGQGTKVEIKRTVAAPSVFIFPPSDEQLKSGTASVVCLLNNFYPREAKVQWKVDNALQSGNSQESVTEQDSKDSTYSLSSTLTLSKADYEKHKVYACEVTHQGLSSPVTKSFNRGEC", "binding result": "binds"}
{"binder": "TAVO579585 (antibody, human IgG1, kappa, Variant IGF2 mask; ADA-H1X / ADA-L2; also called EAC579/EAC585) heavy: GILEECCFRSCDLALLETYCAGGGGSPLGLAGGGGGSEVQLVESGGVVVQPGGSLRLSCAASGFDFADYAMHWVRQAPGKGLEWVSAITWNGGHTDYADSVKGRFTISRDNSKNSLYLQMNSLRTEDTALYYCAKVSYLSTASSLDYWGQGTLVTVSSASTKGPSVFPLAPSSKSTSGGTAALGCLVKDYFPEPVTVSWNSGALTSGVHTFPAVLQSSGLYSLSSVVTVPSSSLGTQTYICNVNHKPSNTKVDKKVEPKSCDKTHTCPPCPAPPAAGPSVFLFPPKPKDTLMISRTPEVTCVVVDVSHEDPEVKFNWYVDGVEVHNAKTKPREEQYNSTYRVVSVLTVLHQDWLNGKEYKCKVSNKALPAPIEKTISKAKGQPREPQVYTLPPSRDELTKNQVSLTCLVKGFYPSDIAVEWESNGQPENNYKTTPPVLDSDGSFLLYSKLTVDKSRWQQGNVFSCSVLHEALHSHYTQKSLSLSPGK light: AYRPSETLCGGELVDTLQFVCGDRGFAFGGGGSPLGLAGGGGGSDIVMTQSPDSLAVSLGERATINCRASQGIRNYLAWYQQKPGQAPKLLIYAASTLQSGVPDRFSGSGSGTDFTLTISSLQAEDVAVYYCQRYNRAPYTFGQGTKVEIKRTVAAPSVFIFPPSDEQLKSGTASVVCLLNNFYPREAKVQWKVDNALQSGNSQESVTEQDSKDSTYSLSSTLTLSKADYEKHKVYACEVTHQGLSSPVTKSFNRGEC", "binding result": "binds"}
